Source: publication PMC11077089, “Molecular basis of A. thaliana KEOPS complex in biosynthesizing tRNA t6A”
Substitutions are numbered along the chain they refer to.

How the values were obtained:
Assay in all cases: EMSA; 1:5 RNA:protein; MST: 20 mM PBS pH 7.5, 300 mM NaCl, 0.05% Tween 20, 25 C, 50 nM RNA; EMSA: 20 mM Tris-HCl pH 7.5, 300 mM NaCl, 5 mM b-mercaptoethanol, 20% glycerol, agarose gel in Tris-glycine pH 8.0 (8.5 for FAM-RNA), 4 C
Details in all cases: protein: recombinant;recombinant;recombinant;recombinant; tags: ;none (6His on partner CGI121);6His (C-term);6His (C-term); chain copies: 2;2;2;2; label: 5' 6-FAM; tRNA cloverleaf
[1] = target: T1, KAE1 K202R;BUD32;CGI121;PCC1 (Arabidopsis thaliana;Arabidopsis …, UniProt O49653;Q94K14;Q6NMZ4;Q8GWD7 1-353;1-226;1-172;1-96, K202R|||)
T1 sequence 1: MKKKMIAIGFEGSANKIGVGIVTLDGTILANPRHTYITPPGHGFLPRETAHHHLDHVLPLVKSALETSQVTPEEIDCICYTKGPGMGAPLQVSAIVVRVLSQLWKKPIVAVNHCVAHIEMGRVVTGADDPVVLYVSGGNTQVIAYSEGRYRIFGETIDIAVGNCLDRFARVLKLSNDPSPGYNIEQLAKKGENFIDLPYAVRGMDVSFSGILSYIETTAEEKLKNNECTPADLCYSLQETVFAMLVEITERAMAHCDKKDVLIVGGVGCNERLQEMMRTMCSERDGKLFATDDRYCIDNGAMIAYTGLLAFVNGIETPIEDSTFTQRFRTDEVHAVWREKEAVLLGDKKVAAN
T1 sequence 2: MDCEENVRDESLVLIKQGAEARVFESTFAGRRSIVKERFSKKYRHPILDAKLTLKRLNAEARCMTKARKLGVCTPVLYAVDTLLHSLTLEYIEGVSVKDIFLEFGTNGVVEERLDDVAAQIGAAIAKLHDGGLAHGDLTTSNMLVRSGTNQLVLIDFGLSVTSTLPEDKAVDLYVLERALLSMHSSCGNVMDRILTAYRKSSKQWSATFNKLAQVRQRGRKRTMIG
T1 sequence 3: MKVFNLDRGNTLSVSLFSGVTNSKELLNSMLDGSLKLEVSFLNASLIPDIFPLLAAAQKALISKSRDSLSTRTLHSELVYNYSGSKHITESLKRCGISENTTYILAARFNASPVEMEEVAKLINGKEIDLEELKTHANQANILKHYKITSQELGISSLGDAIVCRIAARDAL
T1 sequence 4: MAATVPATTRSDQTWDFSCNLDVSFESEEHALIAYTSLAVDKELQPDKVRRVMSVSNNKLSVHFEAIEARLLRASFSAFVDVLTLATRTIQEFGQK

[2] = target: T2, KAE1 A231G;BUD32;CGI121;PCC1 (Arabidopsis thaliana;Arabidopsis …, UniProt O49653;Q94K14;Q6NMZ4;Q8GWD7 1-353;1-226;1-172;1-96, A231G|||)
T2 sequence 1: T1 sequence 1 with R202K, A231G
T2 sequence 2: T1 sequence 2
T2 sequence 3: T1 sequence 3
T2 sequence 4: T1 sequence 4

[3] = target: T3, KAE1 R284C;BUD32;CGI121;PCC1 (Arabidopsis thaliana;Arabidopsis …, UniProt O49653;Q94K14;Q6NMZ4;Q8GWD7 1-353;1-226;1-172;1-96, R284C|||)
T3 sequence 1: T1 sequence 1 with R202K, R284C
T3 sequence 2: T1 sequence 2
T3 sequence 3: T1 sequence 3
T3 sequence 4: T1 sequence 4

[4] = target: T4, KAE1 D298R;BUD32;CGI121;PCC1 (Arabidopsis thaliana;Arabidopsis …, UniProt O49653;Q94K14;Q6NMZ4;Q8GWD7 1-353;1-226;1-172;1-96, D298R|||)
T4 sequence 1: T1 sequence 1 with R202K, D298R
T4 sequence 2: T1 sequence 2
T4 sequence 3: T1 sequence 3
T4 sequence 4: T1 sequence 4

Measured: binding result

B1: 5'-6FAM-tRNAArgCCU (structured_RNA)
RNA: GCGCCUGUAGCUCAGUGGAUAGAGCGUCUGUUUCCUAAGCAGAAGGUCGUAGGUUCGACCCCUACCUGGCGCGCCA
binds: all assays above
